In article PMC9482650, “Quantitative fragmentomics allow affinity mapping of interactomes” (Nature Communications, 2022):

Experiments:
Test in all cases: holdup assay
Parameters in all cases: key: below the threshold = too weak to quantify, mostly under pKd 3.1 to 4
HTRA1, Q92743 = target: HTRA1, Q92743
LDB3, O75112 = target: LDB3, O75112
HTRA2, O43464 = target: HTRA2, O43464
LIN7A, O14910 = target: T1, LIN7A, O14910
T1 sequence (O14910 103-200, limits assumed, looked up): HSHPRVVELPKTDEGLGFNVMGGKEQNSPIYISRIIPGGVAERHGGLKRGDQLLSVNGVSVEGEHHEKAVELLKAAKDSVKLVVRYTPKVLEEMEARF

DLG1_2, Q12959 = target: DLG1_2, Q12959
Chain of DLG1_2, Q12959 (Q12959 314-412): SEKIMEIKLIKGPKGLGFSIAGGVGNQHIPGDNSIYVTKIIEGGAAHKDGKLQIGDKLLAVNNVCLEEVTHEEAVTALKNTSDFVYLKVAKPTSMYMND

GRIP2_4, Q9C0E4 = target: GRIP2_4, Q9C0E4
Chain of GRIP2_4, Q9C0E4 (Q9C0E4 446-548): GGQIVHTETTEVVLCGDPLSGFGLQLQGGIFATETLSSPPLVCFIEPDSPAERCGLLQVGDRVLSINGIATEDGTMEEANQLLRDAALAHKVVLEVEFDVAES

RAPGEF6, Q8TEU7 = target: T2, RAPGEF6, Q8TEU7
T2 sequence (Q8TEU7 525-625, limits assumed, looked up): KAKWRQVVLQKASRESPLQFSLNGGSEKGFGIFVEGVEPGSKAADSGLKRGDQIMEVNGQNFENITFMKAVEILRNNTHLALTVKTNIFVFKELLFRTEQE

GRIP2_6, Q9C0E4 = target: GRIP2_6, Q9C0E4
Chain of GRIP2_6, Q9C0E4 (Q9C0E4 648-740): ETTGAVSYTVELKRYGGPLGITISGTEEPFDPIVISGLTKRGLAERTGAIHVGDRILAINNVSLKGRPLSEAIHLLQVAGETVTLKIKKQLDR

Inadl_9, Q8NI35 = target: Inadl_9, Q8NI35
Chain of Inadl_9, Q8NI35 (Q8NI35 1530-1615): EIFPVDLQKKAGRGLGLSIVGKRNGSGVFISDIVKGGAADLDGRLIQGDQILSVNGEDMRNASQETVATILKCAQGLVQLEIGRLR

MAGI1_1, Q96QZ7 = target: MAGI1_1, Q96QZ7
Chain of MAGI1_1, Q96QZ7 (Q96QZ7 1-106): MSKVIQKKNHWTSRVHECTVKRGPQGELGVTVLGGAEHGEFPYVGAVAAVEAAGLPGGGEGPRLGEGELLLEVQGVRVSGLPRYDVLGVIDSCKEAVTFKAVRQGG

GRIP2_5, Q9C0E4 = target: GRIP2_5, Q9C0E4
Chain of GRIP2_5, Q9C0E4 (Q9C0E4 544-642): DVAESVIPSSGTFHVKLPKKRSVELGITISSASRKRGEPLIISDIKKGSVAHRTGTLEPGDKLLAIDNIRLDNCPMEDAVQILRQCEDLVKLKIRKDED

CARD11, Q9BXL7 = target: T3, CARD11, Q9BXL7
T3 sequence (Q9BXL7 662-765, limits assumed, looked up): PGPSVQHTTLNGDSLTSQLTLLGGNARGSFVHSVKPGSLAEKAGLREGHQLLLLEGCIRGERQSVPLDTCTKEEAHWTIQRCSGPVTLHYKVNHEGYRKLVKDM

AHNAK1, Q09666 = target: AHNAK1, Q09666
Chain of AHNAK1, Q09666 (Q09666 4-100): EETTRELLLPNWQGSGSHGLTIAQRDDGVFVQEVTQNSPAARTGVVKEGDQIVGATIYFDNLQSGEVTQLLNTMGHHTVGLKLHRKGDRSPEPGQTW

LNX1_1, Q8TBB1 = target: LNX1_1, Q8TBB1
Chain of LNX1_1, Q8TBB1 (Q8TBB1 261-371): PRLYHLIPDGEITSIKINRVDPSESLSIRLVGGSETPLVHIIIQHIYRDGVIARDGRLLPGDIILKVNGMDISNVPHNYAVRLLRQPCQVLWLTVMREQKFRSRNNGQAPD

GRIP1_4, Q9Y3R0 = target: T4, GRIP1_4, Q9Y3R0
T4 sequence (Q9Y3R0 467-571, limits assumed, looked up): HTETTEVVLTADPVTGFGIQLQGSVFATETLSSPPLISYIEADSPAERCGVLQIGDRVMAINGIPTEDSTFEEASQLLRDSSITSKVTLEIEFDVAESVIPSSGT

MAGI1_2, Q96QZ7 = target: MAGI1_2, Q96QZ7
Chain of MAGI1_2, Q96QZ7 (Q96QZ7 456-580): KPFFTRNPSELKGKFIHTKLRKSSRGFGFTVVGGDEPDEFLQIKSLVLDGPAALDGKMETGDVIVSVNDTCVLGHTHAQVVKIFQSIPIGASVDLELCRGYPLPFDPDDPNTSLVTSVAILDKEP

MPP7, Q5T2T1 = target: T5, MPP7, Q5T2T1
T5 sequence (Q5T2T1 134-230, limits assumed, looked up): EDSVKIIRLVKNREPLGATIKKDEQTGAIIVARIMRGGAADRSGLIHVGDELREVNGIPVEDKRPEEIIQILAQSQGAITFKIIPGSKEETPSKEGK

LIMK2, P53671 = target: LIMK2, P53671
Chain of LIMK2, P53671 (P53671 143-248): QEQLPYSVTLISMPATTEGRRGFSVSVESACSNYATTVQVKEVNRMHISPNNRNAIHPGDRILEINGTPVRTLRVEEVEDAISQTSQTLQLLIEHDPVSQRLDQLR

PDZRN4_1, Q6ZMN7 = target: PDZRN4_1, Q6ZMN7
Chain of PDZRN4_1, Q6ZMN7 (Q6ZMN7 213-318): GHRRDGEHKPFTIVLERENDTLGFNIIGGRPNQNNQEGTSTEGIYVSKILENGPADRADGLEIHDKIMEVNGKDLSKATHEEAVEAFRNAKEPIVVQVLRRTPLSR

MPP6, Q9NZW5 = target: T6, MPP6, Q9NZW5
T6 sequence (Q9NZW5 125-219, limits assumed, looked up): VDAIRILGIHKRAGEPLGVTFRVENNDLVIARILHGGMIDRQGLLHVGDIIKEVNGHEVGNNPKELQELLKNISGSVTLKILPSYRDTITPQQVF

DLG3_2, Q92796 = target: T7, DLG3_2, Q92796
T7 sequence (Q92796 221-321, limits assumed, looked up): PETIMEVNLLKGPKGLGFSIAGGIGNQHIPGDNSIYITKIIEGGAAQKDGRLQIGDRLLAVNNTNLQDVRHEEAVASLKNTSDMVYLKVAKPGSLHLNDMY

LNX1_3, Q8TBB1 = target: LNX1_3, Q8TBB1
Chain of LNX1_3, Q8TBB1 (Q8TBB1 500-596): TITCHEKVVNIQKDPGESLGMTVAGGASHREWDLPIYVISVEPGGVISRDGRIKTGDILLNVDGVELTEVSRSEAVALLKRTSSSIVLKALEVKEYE

NHERF4_4, Q86UT5 = target: NHERF4_4, Q86UT5
Chain of NHERF4_4, Q86UT5 (Q86UT5 464-550): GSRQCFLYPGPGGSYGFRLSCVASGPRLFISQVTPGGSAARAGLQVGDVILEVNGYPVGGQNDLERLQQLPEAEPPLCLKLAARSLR

FRMPD1, Q5SYB0 = target: T8, FRMPD1, Q5SYB0
T8 sequence (Q5SYB0 52-145, limits assumed, looked up): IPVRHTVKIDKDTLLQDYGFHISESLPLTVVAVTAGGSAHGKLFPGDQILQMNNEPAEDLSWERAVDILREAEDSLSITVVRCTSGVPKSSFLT

SNTG1, Q9NSN8 = target: T9, SNTG1, Q9NSN8
T9 sequence (Q9NSN8 52-150, limits assumed, looked up): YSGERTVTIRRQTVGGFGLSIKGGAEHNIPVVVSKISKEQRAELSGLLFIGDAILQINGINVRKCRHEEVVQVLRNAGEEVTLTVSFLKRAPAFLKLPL

MAST1, Q9Y2H9 = target: MAST1, Q9Y2H9
Chain of MAST1, Q9Y2H9 (Q9Y2H9 962-1065): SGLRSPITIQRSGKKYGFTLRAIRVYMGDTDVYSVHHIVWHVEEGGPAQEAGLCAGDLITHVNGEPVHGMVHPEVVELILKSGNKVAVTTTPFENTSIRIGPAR

IL16_4, Q14005 = target: IL16_4, Q14005
Chain of IL16_4, Q14005 (Q14005 1229-1329): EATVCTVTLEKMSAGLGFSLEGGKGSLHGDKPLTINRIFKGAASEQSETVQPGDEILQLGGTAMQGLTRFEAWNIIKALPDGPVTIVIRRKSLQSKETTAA

FRMPD2_3, Q68DX3 = target: FRMPD2_3, Q68DX3
Chain of FRMPD2_3, Q68DX3 (Q68DX3 1073-1166): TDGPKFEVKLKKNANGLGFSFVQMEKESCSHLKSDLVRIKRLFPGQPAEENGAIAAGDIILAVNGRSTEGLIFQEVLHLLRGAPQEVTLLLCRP

IL16_3, Q14005 = target: IL16_3, Q14005
Chain of IL16_3, Q14005 (Q14005 1107-1207): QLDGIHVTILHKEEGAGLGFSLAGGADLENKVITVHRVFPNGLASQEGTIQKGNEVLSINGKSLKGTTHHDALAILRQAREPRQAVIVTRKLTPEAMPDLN

[1] = plain residues with an end cap or a label only (N-terminal biotin on a linker: ado-ado)
[2] = modified: phospho on T at position -2 from the C-terminal residue

Measured: pKd

Chain of HTRA1, Q92743 (Q92743 360-477): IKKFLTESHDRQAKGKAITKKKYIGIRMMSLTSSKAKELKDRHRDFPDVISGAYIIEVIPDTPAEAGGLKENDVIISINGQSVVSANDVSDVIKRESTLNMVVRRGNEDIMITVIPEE
Chain of HTRA2, O43464 (O43464 355-458): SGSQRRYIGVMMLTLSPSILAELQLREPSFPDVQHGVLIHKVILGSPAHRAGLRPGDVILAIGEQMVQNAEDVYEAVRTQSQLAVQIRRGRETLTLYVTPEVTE
Chain of LDB3, O75112 (O75112 1-94): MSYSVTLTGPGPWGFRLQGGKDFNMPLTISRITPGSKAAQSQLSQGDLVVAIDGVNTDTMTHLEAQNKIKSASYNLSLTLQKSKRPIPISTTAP

SSALYGESDL [ACTN2, P35609]
below the threshold: HTRA1, Q92743; [1] | HTRA2, O43464; [1] | LIN7A, O14910; [1] | DLG1_2, Q12959; [1] | GRIP2_4, Q9C0E4; [1] | GRIP2_6, Q9C0E4; [1] | Inadl_9, Q8NI35; [1] | MAGI1_1, Q96QZ7; [1] | GRIP2_5, Q9C0E4; [1] | CARD11, Q9BXL7; [1] | AHNAK1, Q09666; [1] | GRIP1_4, Q9Y3R0; [1] | MAGI1_2, Q96QZ7; [1] | MPP7, Q5T2T1; [1] | LIMK2, P53671; [1] | MPP6, Q9NZW5; [1] | LNX1_3, Q8TBB1; [1] | NHERF4_4, Q86UT5; [1] | FRMPD1, Q5SYB0; [1] | IL16_4, Q14005; [1] | FRMPD2_3, Q68DX3; [1] | IL16_3, Q14005; [1]
3.62: PDZRN4_1, Q6ZMN7; [1]
3.6: RAPGEF6, Q8TEU7; [1]
3.86: LNX1_1, Q8TBB1; [1]
4.12: SNTG1, Q9NSN8; [1]
4.4: LDB3, O75112; [1]
4.18: DLG3_2, Q92796; [1] | MAST1, Q9Y2H9; [1]

QPCFNKLFPL [LPXN, O60711]
3.74: MAGI1_1, Q96QZ7; [1]
4.1: HTRA2, O43464; [1]
4.33: MAST1, Q9Y2H9; [1]
4.05: MPP7, Q5T2T1; [1]
below the threshold: HTRA1, Q92743; [1] | LDB3, O75112; [1] | LIN7A, O14910; [1] | DLG1_2, Q12959; [1] | GRIP2_4, Q9C0E4; [1] | RAPGEF6, Q8TEU7; [1] | GRIP2_6, Q9C0E4; [1] | Inadl_9, Q8NI35; [1] | GRIP2_5, Q9C0E4; [1] | CARD11, Q9BXL7; [1] | AHNAK1, Q09666; [1] | LNX1_1, Q8TBB1; [1] | GRIP1_4, Q9Y3R0; [1] | MAGI1_2, Q96QZ7; [1] | LIMK2, P53671; [1] | PDZRN4_1, Q6ZMN7; [1] | MPP6, Q9NZW5; [1] | DLG3_2, Q92796; [1] | LNX1_3, Q8TBB1; [1] | NHERF4_4, Q86UT5; [1] | FRMPD1, Q5SYB0; [1] | SNTG1, Q9NSN8; [1] | IL16_4, Q14005; [1] | FRMPD2_3, Q68DX3; [1] | IL16_3, Q14005; [1]

RLQRRRETQV [HPV18-E6_-2P, P06463]
below the threshold: HTRA1, Q92743; [2] | LDB3, O75112; [2] | HTRA2, O43464; [2] | LIN7A, O14910; [2] | DLG1_2, Q12959; [2] | GRIP2_4, Q9C0E4; [2] | RAPGEF6, Q8TEU7; [2] | GRIP2_6, Q9C0E4; [2] | Inadl_9, Q8NI35; [2] | MAGI1_1, Q96QZ7; [2] | GRIP2_5, Q9C0E4; [2] | CARD11, Q9BXL7; [2] | AHNAK1, Q09666; [2] | LNX1_1, Q8TBB1; [2] | GRIP1_4, Q9Y3R0; [2] | MAGI1_2, Q96QZ7; [2] | MPP7, Q5T2T1; [2] | LIMK2, P53671; [2] | PDZRN4_1, Q6ZMN7; [2] | DLG3_2, Q92796; [2] | LNX1_3, Q8TBB1; [2] | NHERF4_4, Q86UT5; [2] | FRMPD1, Q5SYB0; [2] | SNTG1, Q9NSN8; [2] | MAST1, Q9Y2H9; [2] | IL16_4, Q14005; [2] | FRMPD2_3, Q68DX3; [2] | IL16_3, Q14005; [2]
3.57: MPP6, Q9NZW5; [2]

PRISRSQSEL [CCDC134, Q9H6E4]
3.8: IL16_4, Q14005; [1]
3.67: LNX1_1, Q8TBB1; [1]
3.52: LIN7A, O14910; [1]
3.98: DLG3_2, Q92796; [1]
4.13: MAGI1_2, Q96QZ7; [1]
4.74: MAST1, Q9Y2H9; [1]
below the threshold: HTRA1, Q92743; [1] | LDB3, O75112; [1] | HTRA2, O43464; [1] | DLG1_2, Q12959; [1] | GRIP2_4, Q9C0E4; [1] | RAPGEF6, Q8TEU7; [1] | GRIP2_6, Q9C0E4; [1] | Inadl_9, Q8NI35; [1] | MAGI1_1, Q96QZ7; [1] | GRIP2_5, Q9C0E4; [1] | CARD11, Q9BXL7; [1] | AHNAK1, Q09666; [1] | GRIP1_4, Q9Y3R0; [1] | MPP7, Q5T2T1; [1] | LIMK2, P53671; [1] | PDZRN4_1, Q6ZMN7; [1] | MPP6, Q9NZW5; [1] | LNX1_3, Q8TBB1; [1] | NHERF4_4, Q86UT5; [1] | FRMPD1, Q5SYB0; [1] | SNTG1, Q9NSN8; [1] | FRMPD2_3, Q68DX3; [1] | IL16_3, Q14005; [1]

GQEEQVTTRL [TRPC5, Q9UL62]
3.92: HTRA1, Q92743; [1]
3.64: PDZRN4_1, Q6ZMN7; [1]
4.8: MAST1, Q9Y2H9; [1]
below the threshold: LDB3, O75112; [1] | HTRA2, O43464; [1] | LIN7A, O14910; [1] | DLG1_2, Q12959; [1] | GRIP2_4, Q9C0E4; [1] | RAPGEF6, Q8TEU7; [1] | GRIP2_6, Q9C0E4; [1] | Inadl_9, Q8NI35; [1] | MAGI1_1, Q96QZ7; [1] | GRIP2_5, Q9C0E4; [1] | CARD11, Q9BXL7; [1] | AHNAK1, Q09666; [1] | LNX1_1, Q8TBB1; [1] | GRIP1_4, Q9Y3R0; [1] | MAGI1_2, Q96QZ7; [1] | MPP7, Q5T2T1; [1] | LIMK2, P53671; [1] | MPP6, Q9NZW5; [1] | LNX1_3, Q8TBB1; [1] | NHERF4_4, Q86UT5; [1] | FRMPD1, Q5SYB0; [1] | SNTG1, Q9NSN8; [1] | IL16_4, Q14005; [1] | FRMPD2_3, Q68DX3; [1] | IL16_3, Q14005; [1]
3.97: DLG3_2, Q92796; [1]
